In patent US20170254807:

B1: Fc-D1/D2 (mBetacam D1-D2 domain, aa 33-239, fused to human IgG1 Fc; pFUSE-Fc-D1/D2) (protein)
chain: LKVTVPSYTVHGIRGQALYLPVHYGFHTPASDIQIIWLFERSHTMPKYLLGSVNKSVVPDLEYQHKFTMMPPNASLLINPLQFTDEGNYIVKVNIQGNGTLSASQKIQVTVDDPVMKPMVQFHPASGAVEYVGNITLTCQVEGGTRLVYQWRKSGKPISINSSHSFSPQNNTLWIVPVTKEDIGNYTCLVSNPVSEMESDIIMPTIY
B2: Fc-D3 (mBetacam D3 domain, aa 240-335, fused to human IgG1 Fc; pFUSE-Fc-D3) (protein)
chain: YGPYGLQVNSDKGLKVGEVFTVDLGEAVLFDCSADSYPPNTYSWIQRSDNTTHVIKHGPHLEVASEKVAQKTADYVCCAYNNITGRRDETRFTVII

Key:
[1] = bead aggregation assay, fluorescence microscopy
[2] = bead aggregation assay, flow cytometry, experiment 1, before the 90 min incubation

Protein	aggregate size [1]	P3 (aggregates) prior to incubation [2]
B1	Aggregates of >100 beads were observed	–
B2	–	P3 prior to incubation is 40.8%
